Consider two molecules from publication PMC3959867 (Science (New York, N.Y.), 2012).

The target in data set [1] is K11V-TR, cylindrin tandem repeat V2L variant. Kind of data set: native MS.
For data set [2] the target is unchanged. Kind of data set: SEC. A general note: In gel filtration, larger molecules generally elute earlier.
For data set [3] the target is unchanged. The data set can be described thus: crystal structure.
The data set “crystal structure” deals with the molecule itself. Kind of data set: crystal structure.

As to “K11V-TR, cylindrin tandem repeat V2L variant (peptide)”, the stoichiometry N in data set [1], in data set [2] and in data set [3] was 3 throughout.

On to GDVIEV [G6V, six-residue segment GDVIEV of alphaB crystallin], for which the binding result in the data set “crystal structure” was “binds”.
